From the supplement of paper PMC5998384 come the findings set out here.

The test system of data set [1] is HeLa Kyoto. In words: thermal stability score vs G1/S (z-score of summed log2 fold changes over temperatures); higher = more thermally stable than in G1/S.
In data set [2] the test system is HeLa Kyoto. The data set is described as follows: melting temperature (median over replicates), in situ; higher = more thermally stable.
Where [3] appears, read: cell cycle stage: early G1 (4.5 h after nocodazole release).
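Wherever melting temperature (median over replicates), in situ is given: HeLa Kyoto cells synchronized by double thymidine or nocodazole block, proteins quantified by TMT10plex mass spectrometry, three independent biological replicates.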
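Wherever thermal stability score vs G1/S (z-score of summed log2 fold changes over temperatures) is given: synchronized HeLa Kyoto cells, proteins quantified by TMT10plex mass spectrometry, three biological replicates, mitosis taken 0.5 h after nocodazole release, G1/S directly after double thymidine block.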

Turning to “MAAPAGGGGSAVSVLAPNGRRHTVKVTPSTVLLQVLEDTCRRQDFNPCEYDLKFQRSVLDLSLQWRFANLPNNAKLEMVPASRSREGPENMVRIALQLDDGSRLQDSFCSGQTLWELLSHFPQIRECLQHPGGATPVCVYTRDEVTGEAALRGTTLQSLGLTGGSATIRFVMKCYDPVGKTPGSLGSSASAGQAAASAPLPLESGELSRGDLSRPEDADTSGPCCEHTQEKQSTRAPAAAPFVPFSGGGQRLGGPPGPTRPLTSSSAKLPKSLSSPGGPSKPKKSKSGQDPQQEQEQERERDPQQEQERERPVDREPVDREPVVCHPDLEERLQAWPAELPDEFFELTVDDVRRRLAQLKSERKRLEEAPLVTKAFREAQIKEKLERYPKVALRVLFPDRYVLQGFFRPSETVGDLRDFVRSHLGNPELSFYLFITPPKTVLDDHTQTLFQANLFPAALVHLGAEEPAGVYLEPGLLEHAISPSAADVLVARYMSRAAGSPSPLPAPDPAPKSEPAAEEGALVPPEPIPGTAQPVKRSLGKVPKWLKLPASKR [ASPSCR1]”, the values for the thermal stability score in data set [1] (setting [3]) and in data set [1] (cell cycle stage: mitosis) were -0.292 and -0.934, respectively. This substance had a melting temperature in data set [2] (cell cycle stage: G1/S) of 52.2 °C.
As to “MAAVVAKREGPPFISEAAVRGNAAVLDYCRTSVSALSGATAGILGLTGLYGFIFYLLASVLLSLLLILKAGRRWNKYFKSRRPLFTGGLIGGLFTYVLFWTFLYGMVHVY [EMC6]”, the thermal stability score in data set [1] (setting [3]) was 1.03; in data set [1] (cell cycle stage: mitosis) it was -0.846. Moreover, the melting temperature turned out to be 54.6 °C in data set [2] (cell cycle stage: G1/S) and 54.1 °C in data set [2] (cell cycle stage: mitosis).
On the same counts, the results for “MALRELKVCLLGDTGVGKSSIVWRFVEDSFDPNINPTIGASFMTKTVQYQNELHKFLIWDTAGQERFRALAPMYYRGSAAAIIVYDITKEETFSTLKNWVKELRQHGPPNIVVAIAGNKCDLIDVREVMERDAKDYADSIHAIFVETSAKNAININELFIEISRRIPSTDANLPSGGKGFKLRRQPSEPKRSCC [RAB22A]” are 1.25, 0.617, 54.8 °C and 53.7 °C.
Taken in the same sequence, the figures for “MARAAPLLAALTALLAAAAAGGDAPPGKIAVVGAGIGGSAVAHFLQQHFGPRVQIDVYEKGTVGGRLATISVNKQHYESGAASFHSLSLHMQDFVKLLGLRHRREVVGRSAIFGGEHFMLEETDWYLLNLFRLWWHYGISFLRLQMWVEEVMEKFMRIYKYQAHGYAFSGVEELLYSLGESTFVNMTQHSVAESLLQVGVTQRFIDDVVSAVLRASYGQSAAMPAFAGAMSLAGAQGSLWSVEGGNKLVCSGLLKLTKANVIHATVTSVTLHSTEGKALYQVAYENEVGNSSDFYDIVVIATPLHLDNSSSNLTFAGFHPPIDDVQGSFQPTVVSLVHGYLNSSYFGFPDPKLFPFANILTTDFPSFFCTLDNICPVNISASFRRKQPQEAAVWRVQSPKPLFRTQLKTLFRSYYSVQTAEWQAHPLYGSRPTLPRFALHDQLFYLNALEWAASSVEVMAVAAKNVALLAYNRWYQDLDKIDQKDLMHKVKTEL [PCYOX1L]” were 0.689, 1.38, 56.6 °C and 56.2 °C.
Taken in the same sequence, the figures for “MATRRLTDAFLLLRNNSIQNRQLLAEQVSSHITSSPLHSRSIAAELDELADDRMALVSGISLDPEAAIGVTKRPPPKWVDGVDEIQYDVGRIKQKMKELASLHDKHLNRPTLDDSSEEEHAIEITTQEITQLFHRCQRAVQALPSRARACSEQEGRLLGNVVASLAQALQELSTSFRHAQSGYLKRMKNREERSQHFFDTSVPLMDDGDDNTLYHRGFTEDQLVLVEQNTLMVEEREREIRQIVQSISDLNEIFRDLGAMIVEQGTVLDRIDYNVEQSCIKTEDGLKQLHKAEQYQKKNRKMLVILILFVIIIVLIVVLVGVKSR [STX16]” were -1.14, -0.879, 51 °C and 49.8 °C.
Regarding “MAYQLYRNTTLGNSLQESLDELIQSQQITPQLALQVLLQFDKAINAALAQRVRNRVNFRGSLNTYRFCDNVWTFVLNDVEFREVTELIKVDKVKIVACDGKNTGSNTTE [GTF2A2]”, the thermal stability score in data set [1] (setting [3]) stood at 0.419; in data set [1] (cell cycle stage: mitosis), 0.557. Besides, the melting temperature in data set [2] (cell cycle stage: G1/S) stood at 58.6 °C; in data set [2] (cell cycle stage: mitosis) it was 53.4 °C.
On the same counts, the results for “MDGPVAEHAKQEPFHVVTPLLESWALSQVAGMPVFLKCENVQPSGSFKIRGIGHFCQEMAKKGCRHLVCSSGGNAGIAAAYAARKLGIPATIVLPESTSLQVVQRLQGEGAEVQLTGKVWDEANLRAQELAKRDGWENVPPFDHPLIWKGHASLVQELKAVLRTPPGALVLAVGGGGLLAGVVAGLLEVGWQHVPIIAMETHGAHCFNAAITAGKLVTLPDITSVAKSLGAKTVAARALECMQVCKIHSEVVEDTEAVSAVQQLLDDERMLVEPACGAALAAIYSGLLRRLQAEGCLPPSLTSVVVIVCGGNNINSRELQALKTHLGQV [SDSL]” are -3.07, -2.65, 55.1 °C and 57.9 °C.
Turning to “MDSFNYTTPDYGHYDDKDTLDLNTPVDKTSNTLRVPDILALVIFAVVFLVGVLGNALVVWVTAFEAKRTINAIWFLNLAVADFLSCLALPILFTSIVQHHHWPFGGAACSILPSLILLNMYASILLLATISADRFLLVFKPIWCQNFRGAGLAWIACAVAWGLALLLTIPSFLYRVVREEYFPPKVLCGVDYSHDKRRERAVAIVRLVLGFLWPLLTLTICYTFILLRTWSRRATRSTKTLKVVVAVVASFFIFWLPYQVTGIMMSFLEPSSPTFLLLKKLDSLCVSFAYINCCINPIIYVVAGQGFQGRLRKSLPSLLRNVLTEESVVRESKSFTRSTVDTMAQKTQAV [C5AR1]”, the values for the thermal stability score in data set [1] (setting [3]) and in data set [1] (cell cycle stage: mitosis) were -2.16 and -2.08, respectively. The melting temperature in data set [2] (cell cycle stage: G1/S) was determined as 57.8 °C; in data set [2] (cell cycle stage: mitosis) it was 57.4 °C.
For the substance “MEEHGVTQTEHMATIEAHAVAQQVQQVHVATYTEHSMLSADEDSPSSPEDTSYDDSDILNSTAADEVTAHLAAAGPVGMAAAAAVATGKKRKRPHVFESNPSIRKRQQTRLLRKLRATLDEYTTRVGQQAIVLCISPSKPNPVFKVFGAAPLENVVRKYKSMILEDLESALAEHAPAPQEVNSELPPLTIDGIPVSVDKMTQAQLRAFIPEMLKYSTGRGKPGWGKESCKPIWWPEDIPWANVRSDVRTEEQKQRVSWTQALRTIVKNCYKQHGREDLLYAFEDQQTQTQATATHSIAHLVPSQTVVQTFSNPDGTVSLIQVGTGATVATLADASELPTTVTVAQVNYSAVADGEVEQNWATLQGGEMTIQTTQASEATQAVASLAEAAVAASQEMQQGATVTMALNSEAAAHAVATLAEATLQGGGQIVLSGETAAAVGALTGVQDANGLVQIPVSMYQTVVTSLAQGNGPVQVAMAPVTTRISDSAVTMDGQAVEVVTLEQ [NRF1]”, the values for the thermal stability score in data set [1] (setting [3]) and in data set [1] (cell cycle stage: mitosis) were -0.324 and 0.518, respectively. In addition, the melting temperature in data set [2] (cell cycle stage: mitosis) turned out to be 51.4 °C.
For the substance “MEKWYLMTVVVLIGLTVRWTVSLNSYSGAGKPPMFGDYEAQRHWQEITFNLPVKQWYFNSSDNNLQYWGLDYPPLTAYHSLLCAYVAKFINPDWIALHTSRGYESQAHKLFMRTTVLIADLLIYIPAVVLYCCCLKEISTKKKIANALCILLYPGLILIDYGHFQYNSVSLGFALWGVLGISCDCDLLGSLAFCLAINYKQMELYHALPFFCFLLGKCFKKGLKGKGFVLLVKLACIVVASFVLCWLPFFTEREQTLQVLRRLFPVDRGLFEDKVANIWCSFNVFLKIKDILPRHIQLIMSFCSTFLSLLPACIKLILQPSSKGFKFTLVSCALSFFLFSFQVHEKSILLVSLPVCLVLSEIPFMSTWFLLVSTFSMLPLLLKDELLMPSVVTTMAFFIACVTSFSIFEKTSEEELQLKSFSISVRKYLPCFTFLSRIIQYLFLISVITMVLLTLMTVTLDPPQKLPDLFSVLVCFVSCLNFLFFLVYFNIIIMWDSKSGRNQKKIS [ALG6]”, the figures for the thermal stability score in data set [1] (setting [3]) and in data set [1] (cell cycle stage: mitosis) were 0.428 and -1.17, respectively. The results for the melting temperature in data set [2] (cell cycle stage: G1/S) and in data set [2] (cell cycle stage: mitosis) were 54.2 °C and 54.3 °C, respectively.
In the case of “METLYRVPFLVLECPNLKLKKPPWLHMPSAMTVYALVVVSYFLITGGIIYDVIVEPPSVGSMTDEHGHQRPVAFLAYRVNGQYIMEGLASSFLFTMGGLGFIILDRSNAPNIPKLNRFLLLFIGFVCVLLSFFMARVFMRMKLPGYLMG [OSTC]”, the thermal stability score in data set [1] (setting [3]) was 0.174; in data set [1] (cell cycle stage: mitosis) it was 0.407. The melting temperature in data set [2] (cell cycle stage: mitosis) was 54.8 °C.
On to “MEVGGDTAAPAPGGAEDLEDTQFPSEEAREGGGVHAVPPDPEDEGLEETGSKDKDQPPSPSPPPQSEALSSTSRLWSPAAPENSPTCSPESSSGGQGGDPSDEEWRSQRKHVFVLSEAGKPIYSRYGSVEALSATMGVMTALVSFVQSAGDAIRAIYAEDHKLVFLQQGPLLLVAMSRTSQSAAQLRGELLAVHAQIVSTLTRASVARIFAHKQNYDLRRLLAGSERTLDRLLDSMEQDPGALLLGAVRCVPLARPLRDALGALLRRCTAPGLALSVLAVGGRLITAAQERNVLAECRLDPADLQLLLDWVGAPAFAAGEAWAPVCLPRFNPDGFFYAYVARLDAMPVCLLLLGTQREAFHAMAACRRLVEDGMHALGAMRALGEAASFSNASSASAPAYSVQAVGAPGLRHFLYKPLDIPDHHRQLPQFTSPELEAPYSREEERQRLSDLYHRLHARLHSTSRPLRLIYHVAEKETLLAWVTSKFELYTCLSPLVTKAGAILVVTKLLRWVKKEEDRLFIRYPPKYSTPPATSTDQAAHNGLFTGL [MON1B]”, for which the thermal stability score in data set [1] (setting [3]) was -0.93; in data set [1] (cell cycle stage: mitosis), -0.544. The melting temperature amounted to 52.9 °C in data set [2] (cell cycle stage: G1/S) and 52.7 °C in data set [2] (cell cycle stage: mitosis).
As for “MNSMNPMKPALPPAPHGDGSFAYESVPWQQSATQPAGSLSVVTTVWGVGNATQSQVLGNPMGPAGSPSGSSMMPGVAGGSSALTSPQCLGQQAFAEGGANKGYVQQGVYSRGGYPGAPGFTTGYAGGPGGLGLPSHAARPSTDFTQAAAAAAVAAAAATATATATATVAALQEKQSQELSQYGAMGAGQSFNSQFLQHGGPRGPSVPAGMNPTGIGGVMGPSGLSPLAMNPTRAAGMTPLYAGQRLPQHGYPGPPQAQPLPRQGVKRTYSEVYPGQQYLQGGQYAPSTAQFAPSPGQPPAPSPSYPGHRLPLQQGMTQSLSVPGPTGLHYKPTEQFNGQGASFNGGSVSYSQPGLSGPTRSIPGYPSSPLPGNPTPPMTPSSSVPYMSPNQEVKSPFLPDLKPNLNSLHSSPSGSGPCDELRLTFPVRDGVVLEPFRLQHNLAVSNHVFQLRDSVYKTLIMRPDLELQFKCYHHEDRQMNTNWPASVQVSVNATPLTIERGDNKTSHKPLYLKHVCQPGRNTIQITVTACCCSHLFVLQLVHRPSVRSVLQGLLKKRLLPAEHCITKIKRNFSSGTIPGTPGPNGEDGVEQTAIKVSLKCPITFRRIQLPARGHDCRHIQCFDLESYLQLNCERGTWRCPVCNKTALLEGLEVDQYMLGILIYIQNSDYEEITIDPTCSWKPVPVKPDMHIKEEPDGPALKRCRTVSPAHVLMPSVMEMIAALGPGAAPFAPLQPPSVPAPSDYPGQGSSFLGPGTFPESFPPTTPSTPTLAEFTPGPPPISYQSDIPSSLLTSEKSTACLPSQMAPAGHLDPTHNPGTPGLHTSNLGAPPGPQLHHSNPPPASRQSLGQASLGPTGELAFSPATGVMGPPSMSGAGEAPEPALDLLPELTNPDELLSYLGPPDLPTNNNDDLLSLFENN [ZMIZ2]”, the thermal stability score in data set [1] (setting [3]) came to 0.174; in data set [1] (cell cycle stage: mitosis), 0.237.
On the same counts, the results for “MSVPGPYQAATGPSSAPSAPPSYEETVAVNSYYPTPPAPMPGPTTGLVTGPDGKGMNPPSYYTQPAPIPNNNPITVQTVYVQHPITFLDRPIQMCCPSCNKMIVSQLSYNAGALTWLSCGSLCLLGCIAGCCFIPFCVDALQDVDHYCPNCRALLGTYKRL [LITAF]” are -0.592 and -0.943.
Taken in the same sequence, the figures for “MVRFKHRYLLCELVSDDPRCRLSLDDRVLSSLVRDTIARVHGTFGAAACSIGFAVRYLNAYTGIVLLRCRKEFYQLVWSALPFITYLENKGHRYPCFFNTLHVGGTIRTCQKFLIQYNRRQLLILLQNCTDEGEREAIQKSVTRSCLLEEEEESGEEAAEAME [POP5]” were -0.00794 and -2.6.
In the case of TTC3, the thermal stability score in data set [1] (setting [3]) was 0.321; in data set [1] (cell cycle stage: mitosis), -0.39.
